Data on three molecules can be found in patent publication US20220411536A1 (NUMAB THERAPEUTICS, published 2022).

The target in experiment [1] is T1, human HER2 expressed on cells (SK-OV3, MCF-7, HCC1954, HCC827) (human, UniProt P04626 23-1255).
T1 construct: whole, on cells
The experiment in a line: flow cytometry, SK-OV3 cells, competitor 50 nM trastuzumab.

Experiment [2] concerns the target T1, human HER2 expressed on cells (SK-OV3, …). Kind of experiment: flow cytometry, IFNy-stimulated HCC827 cells. (In flow cytometry, cells or beads pass a laser one at a time.)
In experiment [3] the target is unidentified antigen on CHO PD-L1 cells bound by pertuzumab (the filing speculates hamster HER2). The experiment in a line: flow cytometry, CHO PD-L1 cells (residual binding).
Experiment [4] deals with T2, recombinant human Her2 ECD (SinoBiological, cat. 10004-HCCH) (human, UniProt P04626 23-652).
T2 construct: extracellular domain; bought protein
The experiment in a line: SPR, human Her-2.

In experiment [5] the target is T1, human HER2 expressed on cells (SK-OV3, …). Kind of experiment: flow cytometry, IFNy-stimulated HCC1954 cells.
The target is the same in experiment [6]. Kind of experiment: flow cytometry, SK-OV3 cells.
Experiment [7] has the same target. The experiment in a line: flow cytometry, SK-OV3 cells, no competitor.
Experiment [8] shares this target. The experiment in a line: flow cytometry, MCF-7 cells.
For experiment [9], the target named is T3, CD3e on Jurkat PD-1 NFAT reporter T cells or on T cells of human PBMCs (human, UniProt P07766 23-207). Kind of experiment: cell-based or functional assay.
Experiment [10] addresses CD137 on transgenic NF-kB Jurkat reporter cells (Homo sapiens (Human), UniProt Q07011 24-255). Kind of experiment: cell-based or functional assay.
Experiment [11] concerns the target T4, human PD-L1 expressed on cells (CHO-PD-L1, HCC1954, HCC827) (human, UniProt Q9NZQ7 19-290).
T4 construct: whole, on cells; also called hPD-L1; PD-L1 expressing cells
Kind of experiment: flow cytometry competition in presence of human SA: binding of biotinylated PD-1 to HCC1954 cells (Her2+++, PD-L1); blocked ligand PD-1 [HCC1954].

In experiment [12] the target is T4, human PD-L1 expressed on cells …. Kind of experiment: flow cytometry with human SA, inhibition of PD-1 binding to HCC1954 cells.
Experiment [13] addresses T5, recombinant human IL-23R (custom-made by Trenzyme) (human, UniProt Q5VWK5 24-355).
T5 sequence (looked up): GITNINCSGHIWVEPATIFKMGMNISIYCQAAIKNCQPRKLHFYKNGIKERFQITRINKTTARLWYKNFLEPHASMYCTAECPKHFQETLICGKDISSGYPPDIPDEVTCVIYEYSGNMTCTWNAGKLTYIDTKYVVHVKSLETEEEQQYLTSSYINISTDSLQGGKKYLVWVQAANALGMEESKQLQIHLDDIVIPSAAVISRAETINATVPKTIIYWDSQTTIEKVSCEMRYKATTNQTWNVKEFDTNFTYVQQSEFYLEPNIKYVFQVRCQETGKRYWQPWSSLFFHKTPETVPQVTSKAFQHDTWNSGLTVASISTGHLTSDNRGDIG
Kind of experiment: SPR, immobilised IL-23R. In general terms: Surface plasmon resonance follows binding to a sensor surface in real time, without labels.

Experiment [14] has as its target T2, recombinant human Her2 ECD …. The experiment in a line: SPR, immobilised Her2 ECD.
Experiment [15] addresses T6, recombinant human CD3E ECD (SinoBiological, cat. 10977-H08H) (human, UniProt P07766 23-126).
T6 construct: extracellular domain; bought protein; also called CD3s
Kind of experiment: SPR, immobilised CD3e ECD, two-state model; overall KD of the two-state fit.

In experiment [16] the target is T6, recombinant human CD3E ECD …. Kind of experiment: SPR, immobilised CD3e ECD, two-state model (ka1); ka1, first step of the two-state fit.
The target of experiment [17] is T3, CD3e on Jurkat PD-1 NFAT reporter T …. The experiment in a line: cell-based or functional assay. This is another data set of the same source.
The target in experiment [18] is T6, recombinant human CD3E ECD …. The experiment in a line: SPR, immobilised CD3e ECD, two-state model.
Experiment [19] has the same target. The experiment in a line: SPR, immobilised CD3e ECD, two-state model (kd1); kd1, first step of the two-state fit.
A further experiment has as its target T7, mouse serum albumin (mouse, UniProt P07724 25-608).
T7 construct: also called MSA; mouse SA
Kind of experiment: SPR, immobilised MSA, pH 5.5.

The target in another experiment is T8, human serum albumin (human, UniProt P02768 25-609).
T8 construct: also called HSA; human SA
Kind of experiment: SPR, immobilised HSA, pH 5.5.

The target in experiment [20] is T3, CD3e on Jurkat PD-1 NFAT reporter T …. The experiment in a line: cell-based or functional assay. The source holds these as a separate data set.
The target of experiment [21] is T9, Fc-tagged human PD-L1 extracellular domain (SinoBiological, cat. 10084-H02H) (human, UniProt Q9NZQ7 19-238).
T9 construct: extracellular domain; also called hPD-L1; not shown: Fc tag of the bought protein
Kind of experiment: SPR, captured Fc-PD-L1 ECD.

By EC50 is commonly meant the midpoint of the concentration-response curve. The term Kd denotes the constant that tells how readily two partners part at equilibrium. Broadly, the koff is the first-order rate constant of dissociation. As a reminder, the kon is the rate constant with which the complex forms. One may read the IC50 as the midpoint of a concentration-inhibition curve. Read a low IC50 as inhibition by little substance.

T6 sequence (P07766 23-126): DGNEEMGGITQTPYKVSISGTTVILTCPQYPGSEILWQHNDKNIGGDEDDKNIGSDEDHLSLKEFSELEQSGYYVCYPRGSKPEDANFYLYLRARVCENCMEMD
T7 sequence (P07724 25-608 limits assumed): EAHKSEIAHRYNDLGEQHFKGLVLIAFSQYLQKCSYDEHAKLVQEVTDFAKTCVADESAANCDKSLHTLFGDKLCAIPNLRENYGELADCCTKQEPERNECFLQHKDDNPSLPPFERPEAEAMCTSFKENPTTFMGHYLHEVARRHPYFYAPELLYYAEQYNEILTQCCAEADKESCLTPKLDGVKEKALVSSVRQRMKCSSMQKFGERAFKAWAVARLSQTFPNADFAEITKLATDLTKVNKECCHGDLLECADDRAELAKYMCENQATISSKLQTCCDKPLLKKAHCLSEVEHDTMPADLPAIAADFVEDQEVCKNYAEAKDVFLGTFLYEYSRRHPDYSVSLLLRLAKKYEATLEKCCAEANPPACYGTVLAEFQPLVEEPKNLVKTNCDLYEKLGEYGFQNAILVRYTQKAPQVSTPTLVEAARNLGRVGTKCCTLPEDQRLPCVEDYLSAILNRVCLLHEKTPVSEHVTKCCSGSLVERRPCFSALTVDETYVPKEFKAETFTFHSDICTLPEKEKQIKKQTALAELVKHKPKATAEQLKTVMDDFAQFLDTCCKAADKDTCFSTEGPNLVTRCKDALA

B1: PRO1895 (multispecific antibody)
chain 1: DIQMTQSPSSLSASVGDRVTITCKASQDVSIGVAWYQQKPGKAPKLLIYSASYRYTGVPSRFSGSGSGTDFTLTISSLQPEDFATYYCQQYYIYPYTFGCGTKVTVLGGGGGSGGGGSGGGGSGGGGSEVQLVESGGGLVQPGGSLRLSCAASGFTFTDYTMDWVRQAPGKCLEWVADVNPNSGGSIYNQRFKGRFTLSVDRSKNTLYLQMNSLRAEDTAVYYCARNLGPSFYFDYWGQGTLVTVSSGGGGSGGGGSDVVMTQSPSSLSASVGDRVTITCQASQIISSRSAWYQQKPGQPPKLLIYQASKLASGVPSRFSGSGSGTDFTLTISSLQPEDFATYYCQCTYIDSNFGAFGCGTKLTVLGGGSGGSDIQMTQSPSSLSASVGDRVTITCQSSQSVFSNNYLAWFQQKPGQSPKRLIYSASTLASGVPSRFSGSGSGTDFTLTISSLQPEDFATYYCLGSYACSSADCYVFGTGTKVTVLG
chain 2: DIQMTQSPSSLSASVGDRVTITCQASQSINDYLAWYQQKPGKAPKLLIYKASTLASGVPSRFSGSGSGTDFTLTISSLQPEDFATYYCQAAYIITDIDNVFGTGTKVTVLGGGGGSGGGGSGGGGSGGGGSQVQLQESGPGLVKPSETLSLTCKVSGFSFSSGYDMCWIRQPPGKGLEWIGCVVAGSVDITYYASWAKGRVTISVDSSKNQFSLKLSSVTAADTAVYYCARKDAYSDAFNLWGQGTLVTVSSGGGGSGGGGSEVQLVESGGGLVQPGGSLRLSCAASGFSLSSYDMSWVRQAPGKGLAWIGASYASGPTYYASWAKGRFTISRDNSKNTVYLQMNSLRAEDTATYFCARGGWTGTSHSNIWGQGTLVTVSSGGGSGGGSEVQLVESGGGLVQPGGSLRLSCAASGFSFSSSYWICWVRQAPGKCLEWVGCVFTGDGTTYYASWAKGRFTISRDNSKNTVYLQMNSLRAEDTATYFCARPVSVYYYGMDLWGQGTLVTVSS
notes: also called pertuzumab-based MATCH4
Regarding B1, the EC50 in [1] came to 4.55 nM; in experiment [2] it was 1.34 nM; in experiment [3], 97.3 nM; in [5] it was 17.3 nM; in experiment [6], 1.87 nM; in [7], 2.02 nM. Also, a half-maximal response in [8] (EC50) required 5.35 nM. The Kd in experiment [4] came out at 0.414 nM. Moreover, the koff in experiment [4] turned out to be 8.11e-05 s⁻¹. The kon in [4] came out at 196000 M⁻¹ s⁻¹. Besides, the “T cell activation IC50, PBMC with HCC827 cells” value in experiment [9] worked out at 0.153 nM. Further, the “T cell activation IC50, PBMC with HCC1954 cells” value in experiment [9] amounted to 0.027 nM.

B2: PRO1993 (multispecific antibody)
chain 1: DIQMTQSPSSLSASVGDRVTITCKASQDVSIGVAWYQQKPGKAPKLLIYSASYRYTGVPSRFSGSGSGTDFTLTISSLQPEDFATYYCQQYYIYPYTFGCGTKVTVLGGGGGSGGGGSGGGGSGGGGSEVQLVESGGGLVQPGGSLRLSCAASGFTFTDYTMDWVRQAPGKCLEWVADVNPNSGGSIYNQRFKGRFTLSVDRSKNTLYLQMNSLRAEDTAVYYCARNLGPSFYFDYWGQGTLVTVSSGGGGSGGGGSDVVMTQSPSSLSASVGDRVTITCQASQIISSRSAWYQQKPGQPPKLLIYQASKLASGVPSRFSGSGSGTDFTLTISSLQPEDFATYYCQCTYIDSNFGAFGTGTKLTVLGGGSGGSDIQMTQSPSSLSASVGDRVTITCQASQSISNRLAWYQQKPGKAPKLLIYSASTLASGVPSRFSGSGSGTDFTLTISSLQPEDFATYYCQSTYYGNDGNAFGCGTKVTVLG
chain 2: DIQMTQSPSSLSASVGDRVTITCQASQSINDYLAWYQQKPGKAPKLLIYKASTLASGVPSRFSGSGSGTDFTLTISSLQPEDFATYYCQAAYIITDIDNVFGTGTKVTVLGGGGGSGGGGSGGGGSGGGGSQVQLQESGPGLVKPSETLSLTCKVSGFSFSSGYDMCWIRQPPGKGLEWIGCVVAGSVDITYYASWAKGRVTISVDSSKNQFSLKLSSVTAADTAVYYCARKDAYSDAFNLWGQGTLVTVSSGGGGSGGGGSEVQLVESGGGLVQPGGSLRLSCAASGFSFSANYYPCWVRQAPGKCLEWIGCIYGGSSDITYDANWTKGRFTISRDNSKNTVYLQMNSLRAEDTAVYYCARSAWYSGWGGDLWGQGTLVTVSSGGGSGGGSEVQLVESGGGLVQPGGSLRLSCAASGFSFSSSYWICWVRQAPGKGLEWVGCVFTGDGTTYYASWAKGRFTISRDNSKNTVYLQMNSLRAEDTATYFCARPVSVYYYGMDLWGQGTLVTVSS
Turning to B2, in experiment [10], the “EC50, NFkB reporter gene assay, HCC827 cells” value was found to be 0.287 nM and the “EC50, NFkB reporter gene assay, HCC1954 cells” value turned out to be 0.168 nM. For the same molecule, the “IC50 (read off the curve)” value in [11] is ~2 nM. Moreover, the IC50 in experiment [12] is 0.167 µg/mL.

B3: PRO1557 (multispecific antibody)
chain 1: not shown
chain 2: DIQMTQSPSSLSASVGDRVTITCQASENIYSFLAWYQQKPGKAPKLLIYSASKLAAGVPSRFSGSGSGTDFTLTISSLQPEDFATYYCQQTNRYSNPDIYNVFGTGTKVTVLGGGGGSGGGGSGGGGSGGGGSEVQLVESGGGLVQPGGSLRLSCAASGIDFNSNYYMCWVRQAPGKGLEWIGCIYVGSHVNTYYANWAKGRFTISRDNSKNTVYLQMNSLRAEDTAVYYCATSGSSVLYFKFWGQGTLVTVSSGGGGSGGGGSEVQLVESGGGLVQPGGSLRLSCAASGFSLSSYDMSWVRQAPGKGLAWIGASYASGPTYYASWAKGRFTISRDNSKNTVYLQMNSLRAEDTATYFCARGGWTGTSHSNIWGQGTLVTVSSGGGSGGGSEVQLVESGGGLVQPGGSLRLSCAASGFSFSSSYWICWVRQAPGKCLEWVGCVFTGDGTTYYASWAKGRFTISRDNSKNTVYLQMNSLRAEDTATYFCARPVSVYYYGMDLWGQGTLVTVSS
Consider B3, for which, in experiment [13], the dissociation constant Kd came out at 0.931 nM, the koff was 0.000514 s⁻¹ and the kon was 552000 M⁻¹ s⁻¹. For the same molecule, in experiment [14], the Kd was found to be 0.318 nM, the koff is 6.35e-05 s⁻¹ and the kon was determined as 200000 M⁻¹ s⁻¹. Further, in experiment [15], the Kd was 8.43 nM. Moreover, the kon in [16] was determined as 283000 M⁻¹ s⁻¹. Also, in experiment [17], the “target cell killing IC50, 16 h, HCC1954 cells” value is 0.00279 nM and the “target cell killing IC50, 16 h, MCF-7 cells” value came out at 0.0181 nM. Besides, in [18], the KD1 amounted to 18.7 nM and the kd2 came to 0.00356 s⁻¹. The koff in experiment [19] worked out at 0.00529 s⁻¹. Besides, in the experiment with mouse serum albumin, binding was put at a Kd of 11.2 nM, the dissociation rate constant (koff) stood at 0.00107 s⁻¹ and the kon worked out at 95600 M⁻¹ s⁻¹. Also, in the experiment with human serum albumin, the dissociation constant (Kd) was 0.498 nM, the koff is 0.00012 s⁻¹ and the kon was determined as 240000 M⁻¹ s⁻¹. In experiment [20], the “IC50, NFAT reporter, HCC1954 cells” value stood at 0.391 nM; the “IC50, NFAT reporter, HCC1954 cells, + PRO1434” value is 0.671 nM; the “IC50, NFAT reporter, HCC1954 cells, + nivolumab” value is 0.319 nM; the “rel. max. activation vs PRO1497, NFAT reporter, HCC1954 cells” value stood at 82%. Also, in experiment [21], the binding result was “no binding”.
